Experiments:
BlaC [1] = target: T1, BlaC (Mycobacterium tuberculosis, UniProt P9WKD3); assay: […] Å crystal structure; format: binding
BlaC [2] = target: T1, BlaC; assay: biochemical; format: binding
[3] = test system: O=C(Cc1cccs1)N[C@@H]1C(=O)N2C(C(=O)O)=C(/C=C/c3ccc([N+](=O)[O-])cc3[N+](=O)[O-])CS[C@H]12; assay: purified protein; conditions: pH 6.0

T1 sequence (P9WKD3 43-307 limits assumed): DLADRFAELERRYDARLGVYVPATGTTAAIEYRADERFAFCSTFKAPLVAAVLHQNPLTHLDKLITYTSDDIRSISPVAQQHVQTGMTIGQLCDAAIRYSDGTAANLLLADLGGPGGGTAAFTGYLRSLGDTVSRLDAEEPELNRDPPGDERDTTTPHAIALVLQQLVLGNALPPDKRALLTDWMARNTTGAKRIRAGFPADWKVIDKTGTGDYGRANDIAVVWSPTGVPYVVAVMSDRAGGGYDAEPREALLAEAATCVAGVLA

Compound: CC(=O)O [acetate]
- 2.1 Å crystal structure (BlaC [1]): acetate occupies the carboxylate binding site and forms hydrogen bridges with residues Ser-130, Thr-235, and Thr-237

Compound: O=P(O)(O)O [phosphate]
- Kd (BlaC [2]): 27 ± 11 mM

Compound: BlaC (Mycobacterium tuberculosis H37Rv)
- Km [3]: 38 ± 7 µM
- kcat [3]: 69 ± 1 s⁻¹
- kcat/Km [3]: 1.8e+06 ± 300000 M⁻¹ s⁻¹
